Biological target: human c-Met on the surface of human tumor cells (human) (UniProt P08581)
Assay: FACS on tumor cells (cell line not named on the sheet), PE-labelled isotype control, FL2 Log; unstained cells 3.48

Chain of human c-Met on the surface of human tumor cells (human) (P08581 25-1390): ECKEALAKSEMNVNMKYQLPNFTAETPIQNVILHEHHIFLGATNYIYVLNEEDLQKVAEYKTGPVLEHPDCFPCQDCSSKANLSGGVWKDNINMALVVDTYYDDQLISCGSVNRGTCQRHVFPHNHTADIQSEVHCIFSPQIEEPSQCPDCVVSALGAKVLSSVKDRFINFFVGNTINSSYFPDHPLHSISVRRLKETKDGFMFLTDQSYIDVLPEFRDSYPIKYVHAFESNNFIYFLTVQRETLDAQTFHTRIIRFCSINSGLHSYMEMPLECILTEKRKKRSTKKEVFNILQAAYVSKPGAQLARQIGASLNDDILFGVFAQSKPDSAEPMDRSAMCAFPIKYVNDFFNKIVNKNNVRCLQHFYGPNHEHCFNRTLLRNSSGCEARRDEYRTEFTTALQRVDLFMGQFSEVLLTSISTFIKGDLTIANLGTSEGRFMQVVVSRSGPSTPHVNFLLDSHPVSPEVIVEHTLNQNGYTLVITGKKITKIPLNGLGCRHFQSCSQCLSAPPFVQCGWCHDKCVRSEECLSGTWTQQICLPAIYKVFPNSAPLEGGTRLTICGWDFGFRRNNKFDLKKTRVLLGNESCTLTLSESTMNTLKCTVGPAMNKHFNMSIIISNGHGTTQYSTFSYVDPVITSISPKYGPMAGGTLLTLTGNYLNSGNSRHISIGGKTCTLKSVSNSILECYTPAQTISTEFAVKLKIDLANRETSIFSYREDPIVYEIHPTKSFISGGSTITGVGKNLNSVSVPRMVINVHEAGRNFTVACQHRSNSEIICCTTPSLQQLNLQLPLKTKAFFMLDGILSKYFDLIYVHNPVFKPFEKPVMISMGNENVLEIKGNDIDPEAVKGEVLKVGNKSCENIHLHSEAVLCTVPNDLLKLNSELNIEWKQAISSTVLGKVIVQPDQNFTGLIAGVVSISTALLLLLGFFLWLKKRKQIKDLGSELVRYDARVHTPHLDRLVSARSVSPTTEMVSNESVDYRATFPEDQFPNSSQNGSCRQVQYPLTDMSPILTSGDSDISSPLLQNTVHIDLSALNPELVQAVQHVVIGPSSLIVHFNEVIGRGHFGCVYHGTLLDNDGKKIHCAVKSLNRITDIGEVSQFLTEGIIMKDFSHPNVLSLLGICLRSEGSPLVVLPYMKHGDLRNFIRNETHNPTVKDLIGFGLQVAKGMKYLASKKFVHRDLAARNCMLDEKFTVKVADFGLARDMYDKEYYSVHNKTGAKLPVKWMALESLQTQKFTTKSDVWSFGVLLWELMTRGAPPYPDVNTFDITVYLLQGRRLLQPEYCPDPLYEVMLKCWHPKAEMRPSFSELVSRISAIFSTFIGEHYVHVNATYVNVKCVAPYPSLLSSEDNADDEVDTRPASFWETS

Mean fluorescence: 6.47
Substance: mIgG1-PE (antibody)

Source: patent US20140349310A1
